Read-outs that look alike come from different tables or passages of the source.
Tests used:
Assay in all cases: cryo-EM structure; single-particle cryoEM of the icosahedral head of purified BPP-1 virions, frozen hydrated; 50 mM Tris-HCl, 250 mM NaCl, 1 mM MgCl2, pH7.5; ~3.5 Å (capsid), ~3.4 Å (averaged CP and MCP)
[1] = target: cement protein (CP) Bbp16 of bacteriophage BPP-1 (Bordetella bacteriophage BPP-1)
[2] = target: major capsid protein (MCP) Bbp17 of bacteriophage BPP-1 (Bordetella bacteriophage BPP-1)
[3] = target: major capsid protein (MCP) Bbp17 of bacteriophage BPP-1 (Bordetella bacteriophage BPP-1); remark: listed apart in the source

cement protein (CP) Bbp16 of bacteriophage BPP-1 (natural protein)
stoichiometry N [1]: 2

major capsid protein (MCP) Bbp17 of bacteriophage BPP-1 (natural protein)
stoichiometry N [2]: 5 | stoichiometry N [3]: 6

— paper PMC3863775
